The supplement of paper PMC9112550, “Optimization of the antimicrobial peptide Bac7 by deep mutational scanning” (BMC Biology, 2022)

System: Escherichia coli TOP10
Experiment: shrunken log2 fold change of peptide-encoding DNA abundance (4.5 h post-induction vs induction); higher = less antimicrobial activity (less host growth inhibition)
Settings: time post-induction: 4.5 h; library: site-saturation at positions 5, 18, 19, 20
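Also: peptides expressed intracellularly from a pBAD plasmid library in pooled LB shake-flask culture, induced with 0.3% L-arabinose, DNA abundance read by NGS, three biological replicates, DESeq2 with apeglm shrinkage.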

Sequence: RRIRARPPRLPRPRPRPHFKPRP
- shrunken log2 fold change: 0.00608

Sequence: RRIRARPPRLPRPRPRPHGTPRP
- shrunken log2 fold change: -0.0246

Sequence: RRIRARPPRLPRPRPRPHHMPRP
- shrunken log2 fold change: -0.715

Sequence: RRIRARPPRLPRPRPRPHKAPRP
- shrunken log2 fold change: 0.102

Sequence: RRIRARPPRLPRPRPRPHKPPRP
- shrunken log2 fold change: 0.148

Sequence: RRIRARPPRLPRPRPRPHLEPRP
- shrunken log2 fold change: -0.124

Sequence: RRIRARPPRLPRPRPRPHLTPRP
- shrunken log2 fold change: -0.145

Sequence: RRIRARPPRLPRPRPRPHMLPRP
- shrunken log2 fold change: -0.196

Sequence: RRIRARPPRLPRPRPRPHMNPRP
- shrunken log2 fold change: -0.245

Sequence: RRIRARPPRLPRPRPRPHNGPRP
- shrunken log2 fold change: 0.0647

Sequence: RRIRARPPRLPRPRPRPHNMPRP
- shrunken log2 fold change: -0.446

Sequence: RRIRARPPRLPRPRPRPHNVPRP
- shrunken log2 fold change: -0.0333

Sequence: RRIRARPPRLPRPRPRPHNWPRP
- shrunken log2 fold change: 0.129

Sequence: RRIRARPPRLPRPRPRPHSHPRP
- shrunken log2 fold change: 0.144

Sequence: RRIRARPPRLPRPRPRPHSQPRP
- shrunken log2 fold change: 0.0561

Sequence: RRIRARPPRLPRPRPRPHTIPRP
- shrunken log2 fold change: -0.734

Sequence: RRIRARPPRLPRPRPRPHVDPRP
- shrunken log2 fold change: 0.142

Sequence: RRIRARPPRLPRPRPRPHWMPRP
- shrunken log2 fold change: 0.0379

Sequence: RRIRARPPRLPRPRPRPIAGPRP
- shrunken log2 fold change: 0.163

Sequence: RRIRARPPRLPRPRPRPIDWPRP
- shrunken log2 fold change: 0.0607

Sequence: RRIRARPPRLPRPRPRPIEYPRP
- shrunken log2 fold change: -0.267

Sequence: RRIRARPPRLPRPRPRPIGFPRP
- shrunken log2 fold change: -0.0732

Sequence: RRIRARPPRLPRPRPRPIGMPRP
- shrunken log2 fold change: 0.0267

Sequence: RRIRARPPRLPRPRPRPIHQPRP
- shrunken log2 fold change: -0.0255

Sequence: RRIRARPPRLPRPRPRPIIHPRP
- shrunken log2 fold change: -0.216

Sequence: RRIRARPPRLPRPRPRPIINPRP
- shrunken log2 fold change: -0.174

Sequence: RRIRARPPRLPRPRPRPIKRPRP
- shrunken log2 fold change: 0.0415

Sequence: RRIRARPPRLPRPRPRPILKPRP
- shrunken log2 fold change: 0.221

Sequence: RRIRARPPRLPRPRPRPILRPRP
- shrunken log2 fold change: 0.0733

Sequence: RRIRARPPRLPRPRPRPIMPPRP
- shrunken log2 fold change: 0.167

Sequence: RRIRARPPRLPRPRPRPINPPRP
- shrunken log2 fold change: 0.0479

Sequence: RRIRARPPRLPRPRPRPIPSPRP
- shrunken log2 fold change: -0.156

Sequence: RRIRARPPRLPRPRPRPIQIPRP
- shrunken log2 fold change: -0.103

Sequence: RRIRARPPRLPRPRPRPIRRPRP
- shrunken log2 fold change: 0.24

Sequence: RRIRARPPRLPRPRPRPIRTPRP
- shrunken log2 fold change: 0.0627

Sequence: RRIRARPPRLPRPRPRPISKPRP
- shrunken log2 fold change: -0.401

Sequence: RRIRARPPRLPRPRPRPISNPRP
- shrunken log2 fold change: -0.174

Sequence: RRIRARPPRLPRPRPRPISRPRP
- shrunken log2 fold change: 0.354

Sequence: RRIRARPPRLPRPRPRPITTPRP
- shrunken log2 fold change: 0.1

Sequence: RRIRARPPRLPRPRPRPIVAPRP
- shrunken log2 fold change: 0.371

Sequence: RRIRARPPRLPRPRPRPIVIPRP
- shrunken log2 fold change: -0.194

Sequence: RRIRARPPRLPRPRPRPIWLPRP
- shrunken log2 fold change: 0.221

Sequence: RRIRARPPRLPRPRPRPIYCPRP
- shrunken log2 fold change: 0.241

Sequence: RRIRARPPRLPRPRPRPIYLPRP
- shrunken log2 fold change: -0.152

Sequence: RRIRARPPRLPRPRPRPKACPRP
- shrunken log2 fold change: 0.19

Sequence: RRIRARPPRLPRPRPRPKEEPRP
- shrunken log2 fold change: -0.0728

Sequence: RRIRARPPRLPRPRPRPKEFPRP
- shrunken log2 fold change: 0.355

Sequence: RRIRARPPRLPRPRPRPKESPRP
- shrunken log2 fold change: 0.602

Sequence: RRIRARPPRLPRPRPRPKGLPRP
- shrunken log2 fold change: 0.433

Sequence: RRIRARPPRLPRPRPRPKHEPRP
- shrunken log2 fold change: 0.529

Sequence: RRIRARPPRLPRPRPRPKHQPRP
- shrunken log2 fold change: 0.324

Sequence: RRIRARPPRLPRPRPRPKHYPRP
- shrunken log2 fold change: -0.277

Sequence: RRIRARPPRLPRPRPRPKKVPRP
- shrunken log2 fold change: 0.708

Sequence: RRIRARPPRLPRPRPRPKMDPRP
- shrunken log2 fold change: 0.384

Sequence: RRIRARPPRLPRPRPRPKMEPRP
- shrunken log2 fold change: 0.229

Sequence: RRIRARPPRLPRPRPRPKMMPRP
- shrunken log2 fold change: 0.105

Sequence: RRIRARPPRLPRPRPRPKMNPRP
- shrunken log2 fold change: 0.0254

Sequence: RRIRARPPRLPRPRPRPKNLPRP
- shrunken log2 fold change: -0.181

Sequence: RRIRARPPRLPRPRPRPKNSPRP
- shrunken log2 fold change: -0.0129

Sequence: RRIRARPPRLPRPRPRPKPGPRP
- shrunken log2 fold change: 0.644

Sequence: RRIRARPPRLPRPRPRPKPHPRP
- shrunken log2 fold change: 0.579

Sequence: RRIRARPPRLPRPRPRPKPKPRP
- shrunken log2 fold change: 0.936

Sequence: RRIRARPPRLPRPRPRPKQAPRP
- shrunken log2 fold change: 0.147

Sequence: RRIRARPPRLPRPRPRPKQPPRP
- shrunken log2 fold change: 0.516

Sequence: RRIRARPPRLPRPRPRPKRGPRP
- shrunken log2 fold change: 0.565

Sequence: RRIRARPPRLPRPRPRPKSMPRP
- shrunken log2 fold change: 0.0164

Sequence: RRIRARPPRLPRPRPRPKWYPRP
- shrunken log2 fold change: 0.056

Sequence: RRIRARPPRLPRPRPRPKYEPRP
- shrunken log2 fold change: 0.13

Sequence: RRIRARPPRLPRPRPRPKYMPRP
- shrunken log2 fold change: -0.477

Sequence: RRIRARPPRLPRPRPRPLAVPRP
- shrunken log2 fold change: 0.716

Sequence: RRIRARPPRLPRPRPRPLCYPRP
- shrunken log2 fold change: -0.0201

Sequence: RRIRARPPRLPRPRPRPLDCPRP
- shrunken log2 fold change: 0.49

Sequence: RRIRARPPRLPRPRPRPLFFPRP
- shrunken log2 fold change: 0.577

Sequence: RRIRARPPRLPRPRPRPLFHPRP
- shrunken log2 fold change: -0.249

Sequence: RRIRARPPRLPRPRPRPLGFPRP
- shrunken log2 fold change: 0.644

Sequence: RRIRARPPRLPRPRPRPLGTPRP
- shrunken log2 fold change: 0.407

Sequence: RRIRARPPRLPRPRPRPLIKPRP
- shrunken log2 fold change: 0.0844

Sequence: RRIRARPPRLPRPRPRPLKIPRP
- shrunken log2 fold change: -0.165

Sequence: RRIRARPPRLPRPRPRPLKYPRP
- shrunken log2 fold change: -0.11

Sequence: RRIRARPPRLPRPRPRPLLAPRP
- shrunken log2 fold change: 0.949

Sequence: RRIRARPPRLPRPRPRPLLNPRP
- shrunken log2 fold change: 0.373

Sequence: RRIRARPPRLPRPRPRPLMWPRP
- shrunken log2 fold change: 0.481

Sequence: RRIRARPPRLPRPRPRPLNSPRP
- shrunken log2 fold change: 0.0404

Sequence: RRIRARPPRLPRPRPRPLPAPRP
- shrunken log2 fold change: 1.02

Sequence: RRIRARPPRLPRPRPRPLPGPRP
- shrunken log2 fold change: 0.467

Sequence: RRIRARPPRLPRPRPRPLPHPRP
- shrunken log2 fold change: 0.209

Sequence: RRIRARPPRLPRPRPRPLQCPRP
- shrunken log2 fold change: 0.049

Sequence: RRIRARPPRLPRPRPRPLQNPRP
- shrunken log2 fold change: 0.698

Sequence: RRIRARPPRLPRPRPRPLQYPRP
- shrunken log2 fold change: 0.00717

Sequence: RRIRARPPRLPRPRPRPLRWPRP
- shrunken log2 fold change: 0.809

Sequence: RRIRARPPRLPRPRPRPLVKPRP
- shrunken log2 fold change: 0.0577

Sequence: RRIRARPPRLPRPRPRPMAMPRP
- shrunken log2 fold change: 0.282

Sequence: RRIRARPPRLPRPRPRPMAWPRP
- shrunken log2 fold change: 0.662

Sequence: RRIRARPPRLPRPRPRPMDFPRP
- shrunken log2 fold change: 2.73

Sequence: RRIRARPPRLPRPRPRPMDNPRP
- shrunken log2 fold change: -0.114

Sequence: RRIRARPPRLPRPRPRPMEWPRP
- shrunken log2 fold change: 0.259

Sequence: RRIRARPPRLPRPRPRPMFYPRP
- shrunken log2 fold change: -0.282

Sequence: RRIRARPPRLPRPRPRPMGCPRP
- shrunken log2 fold change: 0.495

Sequence: RRIRARPPRLPRPRPRPMGFPRP
- shrunken log2 fold change: -0.154

Sequence: RRIRARPPRLPRPRPRPMGPPRP
- shrunken log2 fold change: 0.161

Sequence: RRIRARPPRLPRPRPRPMHTPRP
- shrunken log2 fold change: 0.261

Sequence: RRIRARPPRLPRPRPRPMHVPRP
- shrunken log2 fold change: -0.0248

Sequence: RRIRARPPRLPRPRPRPMKIPRP
- shrunken log2 fold change: 0.275

Sequence: RRIRARPPRLPRPRPRPMKRPRP
- shrunken log2 fold change: 0.223

Sequence: RRIRARPPRLPRPRPRPMLFPRP
- shrunken log2 fold change: 0.674

Sequence: RRIRARPPRLPRPRPRPMMKPRP
- shrunken log2 fold change: -0.146

Sequence: RRIRARPPRLPRPRPRPMMYPRP
- shrunken log2 fold change: -0.134

Sequence: RRIRARPPRLPRPRPRPMNFPRP
- shrunken log2 fold change: -0.0564

Sequence: RRIRARPPRLPRPRPRPMNRPRP
- shrunken log2 fold change: -0.107

Sequence: RRIRARPPRLPRPRPRPMPFPRP
- shrunken log2 fold change: 0.263

Sequence: RRIRARPPRLPRPRPRPMQCPRP
- shrunken log2 fold change: 0.0593

Sequence: RRIRARPPRLPRPRPRPMQHPRP
- shrunken log2 fold change: 0.642

Sequence: RRIRARPPRLPRPRPRPMQKPRP
- shrunken log2 fold change: 0.222

Sequence: RRIRARPPRLPRPRPRPMTHPRP
- shrunken log2 fold change: 0.151

Sequence: RRIRARPPRLPRPRPRPMTRPRP
- shrunken log2 fold change: 0.849

Sequence: RRIRARPPRLPRPRPRPMVDPRP
- shrunken log2 fold change: 0.299

Sequence: RRIRARPPRLPRPRPRPMWAPRP
- shrunken log2 fold change: 0.557

Sequence: RRIRARPPRLPRPRPRPMYFPRP
- shrunken log2 fold change: -0.154

Sequence: RRIRARPPRLPRPRPRPNAEPRP
- shrunken log2 fold change: 0.679

Sequence: RRIRARPPRLPRPRPRPNANPRP
- shrunken log2 fold change: 0.49

Sequence: RRIRARPPRLPRPRPRPNAPPRP
- shrunken log2 fold change: 0.467

Sequence: RRIRARPPRLPRPRPRPNCAPRP
- shrunken log2 fold change: 0.567

Sequence: RRIRARPPRLPRPRPRPNCCPRP
- shrunken log2 fold change: 0.131

Sequence: RRIRARPPRLPRPRPRPNCEPRP
- shrunken log2 fold change: 0.186

Sequence: RRIRARPPRLPRPRPRPNEYPRP
- shrunken log2 fold change: -0.284

Sequence: RRIRARPPRLPRPRPRPNFEPRP
- shrunken log2 fold change: 0.356

Sequence: RRIRARPPRLPRPRPRPNHAPRP
- shrunken log2 fold change: 0.209

Sequence: RRIRARPPRLPRPRPRPNICPRP
- shrunken log2 fold change: -0.0618

Sequence: RRIRARPPRLPRPRPRPNKCPRP
- shrunken log2 fold change: -0.311

Sequence: RRIRARPPRLPRPRPRPNKHPRP
- shrunken log2 fold change: -0.171

Sequence: RRIRARPPRLPRPRPRPNLGPRP
- shrunken log2 fold change: 0.0306

Sequence: RRIRARPPRLPRPRPRPNLIPRP
- shrunken log2 fold change: 1.17

Sequence: RRIRARPPRLPRPRPRPNMPPRP
- shrunken log2 fold change: -0.0377

Sequence: RRIRARPPRLPRPRPRPNMSPRP
- shrunken log2 fold change: 0.12

Sequence: RRIRARPPRLPRPRPRPNMTPRP
- shrunken log2 fold change: 0.147

Sequence: RRIRARPPRLPRPRPRPNNIPRP
- shrunken log2 fold change: -0.537

Sequence: RRIRARPPRLPRPRPRPNPIPRP
- shrunken log2 fold change: -0.19

Sequence: RRIRARPPRLPRPRPRPNPQPRP
- shrunken log2 fold change: 0.002

Sequence: RRIRARPPRLPRPRPRPNQSPRP
- shrunken log2 fold change: 0.0591

Sequence: RRIRARPPRLPRPRPRPNRGPRP
- shrunken log2 fold change: 0.108

Sequence: RRIRARPPRLPRPRPRPNSIPRP
- shrunken log2 fold change: -0.125

Sequence: RRIRARPPRLPRPRPRPNTQPRP
- shrunken log2 fold change: -0.0663

Sequence: RRIRARPPRLPRPRPRPNWLPRP
- shrunken log2 fold change: 0.275

Sequence: RRIRARPPRLPRPRPRPNWWPRP
- shrunken log2 fold change: 0.802

Sequence: RRIRARPPRLPRPRPRPNYTPRP
- shrunken log2 fold change: -0.329

Sequence: RRIRARPPRLPRPRPRPPDDPRP
- shrunken log2 fold change: 1.2

Sequence: RRIRARPPRLPRPRPRPPEDPRP
- shrunken log2 fold change: 0.308

Sequence: RRIRARPPRLPRPRPRPPEKPRP
- shrunken log2 fold change: 0.611

Sequence: RRIRARPPRLPRPRPRPPFLPRP
- shrunken log2 fold change: 0.529

Sequence: RRIRARPPRLPRPRPRPPGDPRP
- shrunken log2 fold change: 0.868
